± gives the uncertainty stated by the source.
Assay: amyloid nucleation score (Sup35N fusion, yeast selection) (log enrichment); library NNK1; higher = more nucleation; inactive = no reads after selection
Outline: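 Random libraries were run with three technical output replicates. In each, psi-negative yeast expressing Sup35N fused to peptides of 20 random codons were induced 24 hours with 100 μM copper sulfate and grown 7 days at 30°C on medium lacking adenine and uracil, and input and output plasmid inserts were Illumina-sequenced. The nucleation score is the DiMSum log enrichment of output over input reads, centred on the mode score of non-aggregating sequences, and sequences under 100 input reads were excluded.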
Substance DVLSSNVFRNWVMVRSYSRQ has an amyloid nucleation score of 0.795 ± 0.52. Substance DVPGSRQVLVYFFNQIFDEM has an amyloid nucleation score of 5.9 ± 0.088. With DVRGRHRCRFGSQQTKRQS the amyloid nucleation score was 0.586 ± 0.8. DWRYPLAYPVFSIDSRMFD gave an amyloid nucleation score of -0.312 ± 0.46. In the case of DWVELR, the amyloid nucleation score is reported as -0.101 ± 0.86. DWVYITLNGLLW gave an amyloid nucleation score of -0.145 ± 0.46. In the case of DYALYYGVASNRFFGLFRSP, the amyloid nucleation score is reported as 0.642 ± 0.31. For DYESKSNFPYTQVNAITW, the amyloid nucleation score was -1.05 ± 1.2. For DYKFRDRL, the amyloid nucleation score was 0.364 ± 0.32. DYNLVSRYVEPSRLVGFLRI showed an amyloid nucleation score of -0.226 ± 0.73. For DYPCRRGDLRRG, the amyloid nucleation score was 0.642 ± 0.95. DYRADFNNFVFEERSSYISV gave an amyloid nucleation score of -0.236 ± 0.49. For DYSMFHTVLKVRVCNYFFVW, the amyloid nucleation score was 2.37 ± 0.24. DYVPYEKAHRARMYCPTHQG showed an amyloid nucleation score of 0.409 ± 0.35. Substance EAFYFRLRKLFDRNPGGEGT has an amyloid nucleation score of 0.621 ± 0.32. Work on EALCHMWQYSGCP yielded an amyloid nucleation score of 0.324 ± 0.66. Work on ECFDANIWFWSCPMVHYG yielded an amyloid nucleation score of 0.904 ± 0.19. ECGLGRSKEQSNGSWMCLHR gave an amyloid nucleation score of -0.464 ± 0.54. ECYQKTGVCRK showed an amyloid nucleation score of -0.447 ± 0.89. For EDSGNVIGEYFWKF, the amyloid nucleation score was -1.44 ± 1.9. EDTSKVKICFSVIVYSMLNR showed an amyloid nucleation score of 8.161 ± 0.045. Work on EENLSSPWMPMVPIDTINWF yielded an amyloid nucleation score of 1.67 ± 0.52. Work on EFERVRYLYCGRPVPSHILL yielded an amyloid nucleation score of 0.005 ± 0.89. In the case of EFGNVIRVCNLI, the amyloid nucleation score is reported as -0.289 ± 0.34. EFIFFCFVLCYANVMLLWN showed an amyloid nucleation score of 0.601 ± 0.42. Work on EFRKEG yielded an amyloid nucleation score of 1.02 ± 0.52. For EFRSSVDWNAFMKLLVCTKH, the amyloid nucleation score was 0.021 ± 0.93. In the case of EFSVFYMGFGVM, the amyloid nucleation score is reported as “inactive”. With EFYVLISV the amyloid nucleation score was -1.23 ± 1.9. EGITHVFIRDGVGSYLKAET showed an amyloid nucleation score of 1.33 ± 0.58. EGLARCQCLCLTRVIYVESA gave an amyloid nucleation score of -0.403 ± 1.4. In the case of EGLTNMWGGSYYNGLTFMGQ, the amyloid nucleation score is reported as -0.754 ± 0.54. With EGPQIKAAGKPY the amyloid nucleation score was -0.373 ± 0.32. With EGSPKICPRYST the amyloid nucleation score was 0.088 ± 0.6. Work on EGTLSMALTL yielded an amyloid nucleation score of 0.849 ± 0.49. For EIAYVLICRHLLECIRA, the amyloid nucleation score was “inactive”. For EIIET, the amyloid nucleation score was 0.534 ± 0.34. EIIFVRLGANEHWSHNVYVS showed an amyloid nucleation score of -0.746 ± 1.2. EIPLRAGWPPWCGSDICL gave an amyloid nucleation score of 0.639 ± 0.55. For EIVRLVSVSVWVG, the amyloid nucleation score was 0.014 ± 0.69. For EIWPFMPRDHPMNALIYVSR, the amyloid nucleation score was 1.34 ± 0.39. With EKLRIVHQRRGRVHFNSGAI the amyloid nucleation score was -0.482 ± 0.41. EKNCRADATV showed an amyloid nucleation score of -1.96 ± 1.8. With ELAAMCSWAYSN the amyloid nucleation score was 0.097 ± 0.41. ELERWLDQKGTLQLEDQTLV showed an amyloid nucleation score of -0.724 ± 2.4. ELGKKYSLYSLVLAST showed an amyloid nucleation score of 0.107 ± 0.67. Substance ELLMERMRQLVFPPIIYRLN has an amyloid nucleation score of 0.44 ± 0.62. In the case of ELRCTTWSRSPSLQVALVDL, the amyloid nucleation score is reported as -0.499 ± 0.59. For ELRLSLYLRKRRQYFRFVLK, the amyloid nucleation score was -0.516 ± 1.7. With ELSLKVFPTARIKRCMFEPM the amyloid nucleation score was 0.838 ± 0.45. ELSVNMSRDLSVTGLVQGRR gave an amyloid nucleation score of 0.794 ± 0.36. In the case of ELTCWSGDGGVGGILVNVWT, the amyloid nucleation score is reported as 0.565 ± 0.47. Substance EMAFSSINPRGHSIQGSASG has an amyloid nucleation score of -0.282 ± 1.2. Work on EMEVLSVPSVLLVIVVR yielded an amyloid nucleation score of -1.04 ± 0.66. Work on ENDVSQPVRLTVVTRWSWYT yielded an amyloid nucleation score of 0.229 ± 0.53. For ENFLTNYFYSVVTVI, the amyloid nucleation score was -1.51 ± 1.2. In the case of ENIDVENQLVYLFKICFGSM, the amyloid nucleation score is reported as 3.09 ± 0.12. ENRQIWCANGNVVGGTALGV gave an amyloid nucleation score of 0.734 ± 0.69. In the case of ENYKVGACVYLPWPFHENTG, the amyloid nucleation score is reported as -0.096 ± 0.56. In the case of EPAFL, the amyloid nucleation score is reported as 0.229 ± 0.42. EPIYCFCDCNGSRWALYVSV gave an amyloid nucleation score of 0.421 ± 0.54. EPKVSSEQKVFDSCYT showed an amyloid nucleation score of 0.417 ± 0.61. For EPLISCILCKLEGWIPYHI, the amyloid nucleation score was -0.493 ± 0.56. With EQCTLVVSYGVWGHRSSCVG the amyloid nucleation score was 0.93 ± 0.45. In the case of EQENMCSVRQACIYH, the amyloid nucleation score is reported as 1.57 ± 0.29. For EQHSPHPTIEKIALTCFTRC, the amyloid nucleation score was -0.189 ± 0.4. ERNSITSILKRNRLSRGFAL gave an amyloid nucleation score of 2.44 ± 0.48. With ERSYSNWAMG the amyloid nucleation score was 0.958 ± 0.74. Substance ERVSETRQSLTWNHNERIWL has an amyloid nucleation score of 1.55 ± 0.12. With ERYKY the amyloid nucleation score was 0.601 ± 0.61. With ESGYVLESSVQVENKFIFTT the amyloid nucleation score was -2.27 ± 2.4. Substance ESIFFMTDTRSISLCST has an amyloid nucleation score of -0.04 ± 0.27. In the case of ESKEPFLCIQDITVSSFLPF, the amyloid nucleation score is reported as -1.69 ± 2.4. For ESPHYFTLTCV, the amyloid nucleation score was -0.036 ± 0.74. In the case of ESSAIRNGEC, the amyloid nucleation score is reported as 0.252 ± 0.52. For ESSMLAMVGIQSTWCNVSYG, the amyloid nucleation score was 1.67 ± 0.2. Work on ESSYLMNKCSSAIQDWDWGR yielded an amyloid nucleation score of 0.321 ± 0.4. ETITKVVQQLSRLDKLSTYW gave an amyloid nucleation score of 1.53 ± 0.26. With ETMGGLE the amyloid nucleation score was 0.107 ± 0.9. Substance ETPNAFHVHMSYVYRLRWSR has an amyloid nucleation score of 2.75 ± 0.17. Work on ETYGCFRYWISSLPVVEVSF yielded an amyloid nucleation score of -0.368 ± 0.35. Work on EVEIFILNLLFIFPNQKARW yielded an amyloid nucleation score of 4.17 ± 0.12. In the case of EVGRSCWLGSL, the amyloid nucleation score is reported as -0.344 ± 0.68. For EVHRFRVKKEGGDQ, the amyloid nucleation score was 0.869 ± 0.57. In the case of EVMVSAGVTIACSPVVIRFR, the amyloid nucleation score is reported as 1.47 ± 0.54. Work on EVVKSITRKPNLVWRYLTLD yielded an amyloid nucleation score of 0.588 ± 0.44. In the case of EWGNRRVFYVVMDGSRCPAS, the amyloid nucleation score is reported as 0.1 ± 0.16. For EWSFSYCGGVAFLSIEIEFL, the amyloid nucleation score was “inactive”. Substance EYDLRSGEG has an amyloid nucleation score of -0.332 ± 0.46. For EYLFLRRM, the amyloid nucleation score was 2.92 ± 0.089. Work on EYVHLNQVNDAGGVDSGTLS yielded an amyloid nucleation score of 0.823 ± 0.28. For EYVRRKFQPSCTVMRYCFAR, the amyloid nucleation score was 0.006 ± 0.77. With FAGFTGGVLYGVWRLLGSCR the amyloid nucleation score was -0.022 ± 0.59. Substance FAHTLGA has an amyloid nucleation score of 0.333 ± 0.79. For FAKLYLKSISVLLMHTDWVF, the amyloid nucleation score was 0.684 ± 0.62. Substance FAPMILRPVLSQMAWWKDIA has an amyloid nucleation score of -0.108 ± 0.52. FAQWDNLSARSLKGDQRESA showed an amyloid nucleation score of 0.302 ± 0.52. Substance FATRTLVYVYFRWCHDDLSH has an amyloid nucleation score of 0.584 ± 0.56. FAWVDPGFLWDNLTPGTDRC gave an amyloid nucleation score of 0.253 ± 0.43. With FCCGSGNSMDMCWFLSIG the amyloid nucleation score was 6.93 ± 0.079. With FCISLFSHWFALW the amyloid nucleation score was 5.72 ± 0.067. For FCKWCRFDDCTRGYIYFVRR, the amyloid nucleation score was 1.76 ± 0.37. In the case of FCLNGRYECGSRMECEMVRE, the amyloid nucleation score is reported as -0.741 ± 0.39. In the case of FCNNATSTQGNVFSGLLWTL, the amyloid nucleation score is reported as -0.202 ± 0.27. With FCNRFRCSGSVRWLREVEYM the amyloid nucleation score was 0.291 ± 0.46. In the case of FCQLVIFY, the amyloid nucleation score is reported as 2.8 ± 0.18. For FCRFQDR, the amyloid nucleation score was -0.785 ± 0.64. Substance FDGGKVSILFAFISNP has an amyloid nucleation score of 6.252 ± 0.048. In the case of FDGMYNDVRTRNVGARYF, the amyloid nucleation score is reported as 0.552 ± 0.64. Substance FDHSIVKKSQLRGFTVVLRL has an amyloid nucleation score of 1.22 ± 0.35. Substance FDITRGRSTSYLIERRRTWG has an amyloid nucleation score of 0.79 ± 0.82. Work on FDKYLRWFMKTLCNIDNWRW yielded an amyloid nucleation score of -0.233 ± 0.24. For FDSRENETTCAMSEDMTYVV, the amyloid nucleation score was -0.238 ± 0.22. With FDVFMRYG the amyloid nucleation score was “inactive”. With FEERFMFYTNIDNLLYPLSA the amyloid nucleation score was 0.848 ± 0.42. In the case of FELLMDIDC, the amyloid nucleation score is reported as 0.139 ± 0.83. For FENCHHYGTARFKDLPRSIV, the amyloid nucleation score was -0.208 ± 0.66. FEQTIISLVSGYFQSSDYWS showed an amyloid nucleation score of -0.596 ± 0.78. Work on FERRCYRVSDHVAQVLHDPT yielded an amyloid nucleation score of 0.515 ± 0.97. Work on FESKYNTP yielded an amyloid nucleation score of 0.41 ± 0.47. In the case of FESRRVKNGID, the amyloid nucleation score is reported as “inactive”. FEYFCRRDRLTK gave an amyloid nucleation score of -0.209 ± 0.25. With FEYRRNLKCVSFFWSVGINR the amyloid nucleation score was -0.436 ± 0.4. With FFAFYDVHPLHLGDTTLGGW the amyloid nucleation score was 3.29 ± 0.14. FFALVYW gave an amyloid nucleation score of 0.275 ± 0.29. With FFASCIRYDSRNCIGNLQLG the amyloid nucleation score was 0.149 ± 0.64. For FFIYPWFRMTFERRLDGELG, the amyloid nucleation score was 1.62 ± 0.27.
